# Legend:
# rGPBP = target: T1, rGPBP (Homo sapiens, UniProt Q9Y5P4); assay: In vitro phosphorylation of GP antigen-derived peptides by rGPBP; format: biochemical; settings: about 200 ng yeast rGPBP, 10 nmoles peptide, γ-32P-ATP
# T1 construct: made in house; host or cells: Pichia pastoris GS115
# T1 sequence (Q9Y5P4 1-624): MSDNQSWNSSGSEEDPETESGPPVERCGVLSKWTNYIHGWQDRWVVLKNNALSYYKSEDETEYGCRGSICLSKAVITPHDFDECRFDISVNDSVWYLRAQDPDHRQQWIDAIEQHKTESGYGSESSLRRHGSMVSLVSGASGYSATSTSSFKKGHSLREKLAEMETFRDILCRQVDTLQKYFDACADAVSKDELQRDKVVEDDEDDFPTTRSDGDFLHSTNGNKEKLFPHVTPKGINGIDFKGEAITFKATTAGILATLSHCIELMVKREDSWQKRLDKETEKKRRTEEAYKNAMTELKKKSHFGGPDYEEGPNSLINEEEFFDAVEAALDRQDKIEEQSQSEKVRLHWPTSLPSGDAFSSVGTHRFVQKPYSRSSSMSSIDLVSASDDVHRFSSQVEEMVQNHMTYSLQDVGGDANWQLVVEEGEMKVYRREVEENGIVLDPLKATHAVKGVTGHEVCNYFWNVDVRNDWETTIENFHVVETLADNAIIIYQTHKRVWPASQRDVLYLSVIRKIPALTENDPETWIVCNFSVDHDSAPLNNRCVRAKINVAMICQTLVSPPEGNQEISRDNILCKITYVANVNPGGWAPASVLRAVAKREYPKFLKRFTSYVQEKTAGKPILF
# Description: FIG. 5. Recombinant GPBP contains a serine/threonine kinase that specifically phosphorylates the N-terminal region of the human GP antigen. To assess phosphorylation, approximately 200 ng of yeast rGPBP was incubated with [γ]^32P-ATP in the absence (A and B) or presence of GP antigen-derived material (C). In (A), the mixture was subjected to reducing SDS-PAGE (10% gel) and autoradiographed. In (B), the mixture was subjected to ^32P-phosphoamino acid analysis by two-dimensional thin-layer chromatography. The dotted circles indicate the position of ninhydrin stained phosphoamino acids. In (C), the phosphorylation mixtures of the indicated GP-derived material were analyzed by SDS-PAGE (15% gel) and autoradiography (GPpep1 and GPpep1Ala^9) or immunoprecipitated with Mab 17, a monoclonal antibody that specifically recognize GP antigen from human and bovine origin, and analyzed by SDS-PAGE (12.5%) and autoradiography (rGP, GP). The relative positions of rGPBP (A), rGP antigen and the native human and bovine GP antigens (C) are indicated by arrows. The numbers and bars refer to molecular weight markers as in previous Figures. […]
# [1] = Loss of PKA-inducing activity of the peptide on storage; format: physicochemical; settings: long storage at low temperatures
# GPBP = target: T2, GPBP (Homo sapiens, UniProt Q9Y5P4); assay: In vitro GPBP autophosphorylation in the presence of GPΔIII-derived peptide; format: biochemical; settings: about 200 ng rGPBP, 150 μM ATP, 5 nmol peptide
# T2 construct: made in house; host or cells: Pichia pastoris GS115
# T2 sequence (Q9Y5P4 1-624): T1 sequence (Q9Y5P4 1-624)
# Description: FIG. 20. Regulation of the GPBP by the C terminal region of GPΔIII. About 200 ng of rGPBP were in vitro phosphorylated with 150 μM ATP in the absence (lane 1) or in the presence of 5 nmol of GPΔIII-derived peptide synthesized either using Boc-(lane 2) or Fmoc-(lane 3) chemistry. The reaction mixtures were subjected to SDS-PAGE, transferred to PVDF and autoradiographed to asses autophosphorylation, and subsequently blotted with anti-FLAG monoclonal antibodies (Sigma) to determine the amount of recombinant material present (Western).
# In vitro phosphorylation assays-About 200 ng of rGPBP were incubated overnight at 30° C. in 25 mM β-glycerolphosphate (pH 7.0), 0.5 mM EDTA, 0.5 mM EGTA, 8 mM MgCl2, 5 mM MnCl2, 1 mM DTT and 0.132 μM γ-^32P-ATP, in the presence or absence of 0.5-1 μg of protein substrates or 10 nmoles of synthetic peptides, in a total volume of 50 μl.
# (§1) Phosphorylation studies. Phosphorylation studies were essentially done as described above (see also 3 and 12). In some experiments, the substrates were in-blot renatured and then, phosphorylated for 30 min at room temperature by overlaying 100 μl of phosphorylation buffer containing 0.5 μg of rGPBP. Digestion with V8 endopeptidase and immunoprecipitation were performed as described in (3).
# PKA = PKA (Homo sapiens, UniProt P17612); assay: PKA phosphorylation of native GP antigen (α3(IV)NC1 domain or hexamer) in the presence of C-terminal peptides; format: biochemical; settings: 0.1 μM ATP, 10 nmol peptide, purified α3(IV)NC1 domain or hexamer
# Description: FIG. 16. Phosphorylation of GP alternative splicing products by PKA. In left panel, equimolecular amounts of rGP (lanes 1), rGPΔV (lanes 2), rGPΔIII (lanes 3) or rGPΔIII/IV/V (lanes 4), equivalent to 500 ng of the GP were phosphorylated at the indicated ATP concentrations. One-fifth of the total phosphorylation reaction mixture was separated by gel electrophoresis and transferred to PVDF, autoradiographed (shown) and the proteins blotted with M3/1, a specific monoclonal antibody recognizing all four species (shown) or using antibodies specific for each individual C-terminal region (not shown). […] Right panel: purified α3(IV)NC1 domain or hexamer was phosphorylated with PKA and 0.1 μM ATP in the absence (lanes 1) or in the presence of 10 nmol of peptides representing the C-terminal region of either GPΔIII (lanes 2) or GPΔIII/IV/V (lanes 3). Where indicated the phosphorylation mixtures of purified α3(IV)NC1 domain were V8 digested and immunoprecipitated with antibodies specific for the N terminus of the human α3(IV)NC1 domain (3). Bars and numbers indicate the position and sizes (kDa) of the molecular weight markers.
# as §1
sequence,measurement,setting,value
"KGKRGDAGSPATWTTRGFVFT [GPpep1Ala^9, mutant Ser9 to Ala9 of GPpep1, residues 3-23 of the human GP antigen]","32P incorporation by rGPBP, compared with GPpep1",rGPBP,lower ^32P incorporation
QRAHGQDLDALFVKVLRSP [Boc-based peptide],stability of biological activity (ability to induce PKA) on storage,[1],loses its ability to induce PKA upon long storage at low temperatures
same,effect on GPBP autophosphorylation,GPBP; listed as Boc-based synthetic peptides,positively influenced GPBP autophosphorylation
QRAHGQDLDALFVKVLRSP [Fmoc-based peptide],induction of GP antigen phosphorylation by PKA,PKA; listed as Fmoc-based peptides,not
same,effect on GPBP autophosphorylation,GPBP,inhibited GPBP autophosphorylation
"QRAHGQDLDALFVKVLRSP [GPΔIII derived peptide, synthetic peptide representing the C-terminal region of GPΔIII, chemistry not specified at the place]",induction of GP antigen phosphorylation by PKA,PKA; listed as SEQ ID NO: 43,induced the phosphorylation of a single polypeptide
"QRAHGQDLESLFHQL [GPΔIII/IV/V derived peptide, synthetic peptide representing the C-terminal region of GPΔIII/IV/V]",induction of GP antigen phosphorylation by PKA,PKA,induced the phosphorylation of a single polypeptide
